Experiments:
[1] = system: TGFβ1 signaling pathway in VSMC cells (aortic smooth muscle cells); experiment: VSMC cells treated with AGGF1 protein: Western blot, ELISA, RT-PCR of TGFβ1 signaling; format: cell-based
Description: FIG. 8 depicts that AGGF1 inhibits TGF-β1 and ERK1/2 signaling pathways and a TGF-β1-induced VSMC inflammation. […] Subsequently, cell lysates are collected for the western blot analysis of p-ERK1/2, T-ERK1/2, and p-Smad3. The GAPDH serves as a loading control. […] After 48 hours, the cell lysates are collected for the western blot analysis of p-ERK1/2, T-ERK1/2, and p-Smad3. […] The GAPDH serves as a loading control. […] Subsequently, mRNA is extracted using a Trizol method and reverse transcribed to obtain cDNA for a real-time RT-PCR detection of Il-6, Mcp1, Mmp2, and Mmp9 mRNA levels. […] Subsequently, mRNA is extracted using the Trizol method and reverse transcribed to obtain cDNA. The real-time RT-PCR is performed to analyze the mRNA levels of Il-6, Mcp1, Mmp2, and Mmp9. *, P<0.05; **, P<0.01; ***, P<0.001; n=3/group.
(§1) The β-actin serves as a loading control. […] The GAPDH serves as a loading control. […] The mRNA is extracted using the Trizol method and reverse transcribed to obtain cDNA. […] Cells are transfected with different plasmids of LAP-TGF-β1-FLAG and the integrin α7-FLAG, and treated with the purified AGGF1 or AGGF1-RDDdel for 24 hours, with grouping as shown in FIG. K. *, P<0.05; **, P<0.01; ***, P<0.001; n≥3/group.
(§2) In vitro experiments were performed using aortic smooth muscle cells and HEK293T cells. As shown in A-C of FIG. 8 and A-F of FIG. 9, whether with recombinant AGGF1 protein, AGGF1-FLAG overexpression, or AGGF1 silencing, Western blot analysis and ELISA experimental results verified that AGGF1 inhibits the TGFβ1 signaling pathway (Smad3 and ERK1/2) and the level of the mature TGFβ1. […] In the Western blot analysis of FIG. 10, it was verified that LAP-TGFβ1 interacts with integrin α7 through the RGD sequence, which is also the molecular mechanism by which integrin α7 inhibits TGFβ1.

[2] = system: mature TGFβ1 in HEK293T cells; experiment: ELISA of TGF-β1 levels in culture medium of HEK293T cells transfected with LAP-TGF-β1-FLAG and integrin α7-FLAG; format: cell-based; settings: purified protein 24 hours
Description: as §1, §2

[3] = target: T1, integrin α7 / LAP-TGF-β1 interaction (Homo sapiens, UniProt Q13683); experiment: Co-IP of LAP-TGF-β1-GFP and integrin α7-FLAG in HEK293T cells; format: cell-based; settings: AGGF1 overexpression or stimulation for 24 hours
T1 construct: FLAG; GFP; expressed in transfected cells; host or cells: HEK293T
Description: FIG. 10 illustrates that the integrin α7 interacts with LAP-TGF-β1 via an RGD sequence, and AGGF1 enhances this interaction. […] Quantitative data of a LAP-TGF-β1-GFP/α7-FLAG ratio are plotted as bar graphs on the right. […] Quantitative data of the LAP-TGF-β1-GFP/α7-FLAG ratio are plotted as bar graphs on the right. *, P<0.05; **, P<0.01; ***, P<0.001; n=3/group.

[4] = system: aortic aneurysm induced by Fbn1^C1041G/+ mutation; experiment: AGGF1 treatment of spontaneous aortic aneurysm in Fbn1 C1041G/+ mutant mice; format: in vivo
Description: FIG. 13 depicts an AGGF1 treatment for a spontaneous aortic aneurysm in FbnC1041G/+ mutant mice. […] The bar graph on the right illustrates the luminal diameter of the ascending aortic. […] The GAPDH serves as a loading control. […] The bar graphs on the right indicate the percentage of the positive area for the respective immunostaining quantification. *, P<0.05; **, P<0.01; ***, P<0.001; n=8/group for mouse studies, other sample sizes n=4/group.
The present disclosure obtained the previously published Fbn1^C1041G/+ mutant mice from Tongji Hospital. Compared with the wild-type mice, we detected spontaneous aortic expansion in these mice at week 10, resulting in the aortic aneurysm. After obtaining these mice, at week 10, mice were intraperitoneally injected with Buffer or AGGF1 protein, and the injection continued until week 18. At week 18, mice underwent ultrasound examination, then were euthanized and their aortas were collected for Western Blotting experiments and histochemical staining.

[5] = system: BAPN-induced aortic aneurysm; experiment: β-aminopropionitrile (BAPN)-induced aortic aneurysm model; format: in vivo, C57BL/6 male mice; settings: BAPN-fed mice
Description: FIG. 14 depicts an AGGF1 treatment for a β-aminopropionitrile (BAPN)-induced aortic aneurysm. […] The bar graphs below show the intimal thickness (1st image), the adventitia thickness (2nd image), and the total carotid artery wall thickness (3rd image). […] The bar graphs on the right show the percentage of the positive area for respective immunostaining quantifications. […] The GAPDH serves as a loading control. *, P<0.05; **, P<0.01; ***, P<0.001; n≥8/group for mouse studies, other sample sizes n=4/group.
β-aminopropionitrile is a lysyl oxidase (LOX) inhibitor that is readily soluble in water. Three-week-old mice fed with 0.25% BAPN have a very high incidence of the thoracic aortic aneurysm after 4 weeks. Three-week-old C57BL/6 male mice were divided into 4 groups, with ultrasound detection of the aorta on day 28, followed by euthanasia and collection of the aorta for Western Blotting experiments and histochemical staining.

[6] = system: TAC-induced mouse aneurysm model; experiment: TAC (transverse aortic constriction)-induced aneurysm model, i.p. recombinant AGGF1 or AGGF1-RDDdel protein; format: in vivo, C57BL/6 mice; settings: 0.5 mg/kg i.p., day 21

T1 sequence (Q13683 34-1181): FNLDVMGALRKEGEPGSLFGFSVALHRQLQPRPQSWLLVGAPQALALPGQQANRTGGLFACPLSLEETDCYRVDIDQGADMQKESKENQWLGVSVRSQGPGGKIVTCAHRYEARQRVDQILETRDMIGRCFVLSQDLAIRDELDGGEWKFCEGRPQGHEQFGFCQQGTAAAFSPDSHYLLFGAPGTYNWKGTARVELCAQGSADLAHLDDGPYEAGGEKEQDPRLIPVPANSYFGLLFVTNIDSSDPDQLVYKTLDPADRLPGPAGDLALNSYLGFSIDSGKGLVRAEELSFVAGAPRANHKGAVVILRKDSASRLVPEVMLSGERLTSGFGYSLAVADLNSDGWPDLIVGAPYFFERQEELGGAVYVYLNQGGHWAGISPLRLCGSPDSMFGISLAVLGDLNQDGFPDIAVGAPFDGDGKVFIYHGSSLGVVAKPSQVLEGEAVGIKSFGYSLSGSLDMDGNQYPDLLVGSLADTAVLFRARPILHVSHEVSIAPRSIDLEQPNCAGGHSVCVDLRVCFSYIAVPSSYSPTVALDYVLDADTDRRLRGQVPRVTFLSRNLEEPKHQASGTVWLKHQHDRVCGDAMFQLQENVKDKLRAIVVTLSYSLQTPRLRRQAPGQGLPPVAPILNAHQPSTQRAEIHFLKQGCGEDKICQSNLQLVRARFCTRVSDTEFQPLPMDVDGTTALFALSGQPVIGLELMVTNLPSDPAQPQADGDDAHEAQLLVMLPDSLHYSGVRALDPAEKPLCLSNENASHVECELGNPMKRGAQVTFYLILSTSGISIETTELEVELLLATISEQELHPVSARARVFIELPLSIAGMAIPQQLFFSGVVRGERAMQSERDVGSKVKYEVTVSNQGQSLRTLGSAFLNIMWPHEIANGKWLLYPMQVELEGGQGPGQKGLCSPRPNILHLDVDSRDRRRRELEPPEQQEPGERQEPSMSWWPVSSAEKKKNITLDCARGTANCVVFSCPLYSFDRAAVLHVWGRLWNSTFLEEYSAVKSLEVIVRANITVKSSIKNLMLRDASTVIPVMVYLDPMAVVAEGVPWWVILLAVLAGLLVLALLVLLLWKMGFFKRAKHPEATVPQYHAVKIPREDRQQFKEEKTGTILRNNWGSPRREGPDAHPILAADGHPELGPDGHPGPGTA
T1 sequence (P05556 21-798 partner): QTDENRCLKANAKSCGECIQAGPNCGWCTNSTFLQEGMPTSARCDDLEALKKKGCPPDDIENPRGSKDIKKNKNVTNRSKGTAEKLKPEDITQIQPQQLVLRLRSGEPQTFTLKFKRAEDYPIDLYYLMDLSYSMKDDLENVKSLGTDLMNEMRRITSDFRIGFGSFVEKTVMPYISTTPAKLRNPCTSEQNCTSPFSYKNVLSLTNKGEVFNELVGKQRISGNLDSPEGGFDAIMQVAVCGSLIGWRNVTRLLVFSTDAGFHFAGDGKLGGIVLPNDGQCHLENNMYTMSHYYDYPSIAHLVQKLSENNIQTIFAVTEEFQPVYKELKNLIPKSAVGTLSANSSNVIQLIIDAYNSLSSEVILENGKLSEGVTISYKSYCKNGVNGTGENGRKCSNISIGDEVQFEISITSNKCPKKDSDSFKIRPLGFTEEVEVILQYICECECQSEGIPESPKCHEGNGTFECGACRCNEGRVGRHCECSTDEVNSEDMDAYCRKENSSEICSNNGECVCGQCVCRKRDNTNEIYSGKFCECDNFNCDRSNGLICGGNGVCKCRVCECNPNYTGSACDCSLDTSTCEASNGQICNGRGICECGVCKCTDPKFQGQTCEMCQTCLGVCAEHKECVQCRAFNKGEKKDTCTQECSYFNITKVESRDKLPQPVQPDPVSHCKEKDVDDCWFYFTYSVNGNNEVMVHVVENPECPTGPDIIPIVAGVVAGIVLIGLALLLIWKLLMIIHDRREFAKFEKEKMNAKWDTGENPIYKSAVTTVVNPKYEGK

B1: AGGF1 protein: recombinant human AGGF1 protein with His tag, SEQ ID NO:1, expressed from pet28-AGGF1 in Escherichia coli BL21 (DE3) (protein, listed as Homo sapiens)
chain: MASEAPSPPRSPPPPTSPEPELAQLRRKVEKLERELRSCKRQVREIEKLLHHTERLYQNAESNNQELRTQVEELSKILQRGRNEDNKKSDVEVQTENHAPWSISDYFYQTYYNDVSLPNKVTELSDQQDQAIETSILNSKDHLQVENDAYPGTDRTENVKYRQVDHFASNSQEPASALATEDTSLEGSSLAESLRAAAEAAVSQTGFSYDENTGLYFDHSTGFYYDSENQLYYDPSTGIYYYCDVESGRYQFHSRVDLQPYPTSSTKQSKDKKLKKKRKDPDSSATNEEKDLNSEDQKAFSVEHTSCNEEENFANMKKKAKIGIHHKNSPPKVTVPTSGNTIESPLHENISNSTSFKDEKIMETDSEPEEGEITDSQTEDSYDEAITSEGNVTAEDSEDEDEDKIWPPCIRVIVIRSPVLQIGSLFIITAVNPATIGREKDMEHTLRIPEVGVSKFHAEIYFDHDLQSYVLVDQGSQNGTIVNGKQILQPKTKCDPYVLEHGDEVKIGETVLSFHIHPGSDTCDGCEPGQVRAHLRLDKKDESFVGPTLSKEEKELERRKELKKIRVKYGLQNTEYEDEKTLKNPKYKDRAGKRREQVGSEGTFQRDDAPASVHSEITDSNKGRKMLEKMGWKKGEGLGKDGGGMKTPIQLQLRRTHAGLGTGKPSSFEDVHLLQNKNKKNWDKARERFTENFPETKPQKDDPGTMPWVKGTLE
modifications: His tag
TGFβ1-induced inflammation (Il6, Mcp1, Mmp2, Mmp9) ([1]; RT-PCR, TGF-β1 24 hours then AGGF1 24 hours): inhibit | level of the mature TGFβ1 ([1]; Western blot and ELISA, protein treatment 48 hours): inhibits | TGFβ1 signaling pathway (Smad3 and ERK1/2) ([1]; Western blot, TGF-β1 15 minutes then AGGF1 10 minutes): inhibits | inhibition of mature TGFβ1 by integrin α7 [2]: enhance | interaction of integrin α7 with LAP-TGF-β1 (LAP-TGF-β1-GFP/α7-FLAG ratio) [3]: enhances | expansion of the ascending aorta ([4]; i.p. from week 10 to week 18, ultrasound at week 18): significantly inhibit | increase in αSMA/CD68/MCP1 levels (immunostaining positive areas) ([4]; week 18): significantly inhibit | level of mature TGFβ1 (Western blot, ascending aorta) ([4]; week 18): inhibited | p-ERK (Western blot, ascending aorta) ([4]; week 18): inhibited | p-Smad2 (Western blot, ascending aorta) ([4]; week 18): inhibited | p-Smad3 (Western blot, ascending aorta) ([4]; week 18): inhibited | thickening of the vascular media ([4]; week 18): significantly inhibit | incidence of BAPN-induced aortic dissection [5]: no effect | level of the mature TGFβ1 (Western blot, ascending aorta) [5]: inhibited | p-ERK (Western blot, ascending aorta) [5]: inhibited | p-Smad2 (Western blot, ascending aorta) [5]: inhibited | p-Smad3 (Western blot, ascending aorta) [5]: inhibited | survival rate of aneurysm model mice [5]: significantly improve | aortic inflammation ([5]; day 28): significantly inhibited | aortic remodeling ([5]; day 28): significantly inhibited | aortic thickening (H&E staining) ([5]; day 28): significantly inhibited | vascular expansion (ascending aorta, ultrasound) ([5]; day 28): inhibitory effect | level of the mature TGFβ1 (Western blot, ascending aorta, FIG. 7) [6]: inhibit | p-ERK1/2 (Western blot, ascending aorta, FIG. 7) [6]: inhibit | p-Smad3 (Western blot, ascending aorta, FIG. 7) [6]: inhibit

— patent publication US20260209294A1, “USE OF RECOMBINANT PROTEIN IN PREPARING DRUG FOR INHIBITING ANEURYSM” (HUAZHONG UNIVERSITY OF SCIENCE AND TECHNOLOGY, priority 2022, published 2026)
